Experimental data taken from patent publication US20200317768A1 (published 2020).

What was measured:
Assay in all cases: SPR; FcgR bound per captured antibody, normalized to SG1
[1] = target: T1, cynomolgus monkey FcγRIIa2 extracellular domain, C-terminal His-tag (cynomolgus monkey)
T1 construct: also called cyno FcγRIIa2; FcgRIIa2
T1 chain: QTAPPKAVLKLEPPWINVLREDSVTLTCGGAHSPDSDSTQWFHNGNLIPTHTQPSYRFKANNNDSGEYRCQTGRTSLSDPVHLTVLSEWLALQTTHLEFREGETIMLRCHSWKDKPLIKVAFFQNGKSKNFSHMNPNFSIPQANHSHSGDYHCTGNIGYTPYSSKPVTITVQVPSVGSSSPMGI
Procedure: (§1) The kinetic analysis of interactions between these antibodies and FcγR was carried out using BIACORE® T200 or BIACORE® 4000 (GE Healthcare). HBS-EP+ (GE Healthcare) was used as the running buffer, and the measurement temperature was set to 25° C. A chip produced by immobilizing Protein A. Protein A/G or mouse anti-human IgG kappa light chain (BD Biosciences) onto a Series S Sensor Chip CM4 or CM5 (GE Healthcare) by the amine-coupling method was used. […] After the measurement, the antibody captured on the chip was washed off by allowing reaction with 10 mM glycine-HCl, pH1.5 and 25 mM NaOH so that the chip was regenerated and used repeatedly. The sensorgrams obtained as measurement results were analyzed by the 1:1 Langmuir binding model using the BIACORE® Evaluation Software to calculate the binding rate constant ka (L/mol/s) and dissociation rate constant kd (l/s), and the dissociation constant KD (mol/L) was calculated from these values. […] Regarding such interactions, KD values were calculated using the following 1:1 binding model described in BIACORE® T100 Software Handbook BR1006-48 Edition AE.
(§2) The value of the amount of FcγR binding was obtained by dividing the amount of FcγR bound by the amount of each antibody captured.

[2] = target: T2, cynomolgus monkey FcγRIIa3 extracellular domain, C-terminal His-tag (cynomolgus monkey)
T2 construct: also called cyno FcγRIIa3; FcgRIIa3
T2 chain: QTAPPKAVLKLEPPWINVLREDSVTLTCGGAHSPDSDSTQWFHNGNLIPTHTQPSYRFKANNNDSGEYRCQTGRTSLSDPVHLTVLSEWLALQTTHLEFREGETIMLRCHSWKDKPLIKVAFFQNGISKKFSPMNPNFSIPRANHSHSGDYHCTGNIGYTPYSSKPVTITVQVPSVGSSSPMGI
Procedure: as §1, §2

[3] = target: T3, cynomolgus monkey FcγRIIa1 extracellular domain, C-terminal His-tag (cynomolgus monkey)
T3 construct: also called cyno FcγRIIa1; FcgRIIa1
T3 chain: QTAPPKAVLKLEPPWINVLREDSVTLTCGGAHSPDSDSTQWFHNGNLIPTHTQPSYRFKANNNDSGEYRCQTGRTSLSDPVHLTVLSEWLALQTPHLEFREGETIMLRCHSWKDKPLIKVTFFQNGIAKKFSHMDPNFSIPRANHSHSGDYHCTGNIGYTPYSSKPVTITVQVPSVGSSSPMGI
Procedure: as §1, §2

[4] = target: T4, cynomolgus monkey FcγRIIb extracellular domain, C-terminal His-tag (cynomolgus monkey)
T4 construct: also called cyno FcγRIIb; cynoFcγRIIb
T4 chain: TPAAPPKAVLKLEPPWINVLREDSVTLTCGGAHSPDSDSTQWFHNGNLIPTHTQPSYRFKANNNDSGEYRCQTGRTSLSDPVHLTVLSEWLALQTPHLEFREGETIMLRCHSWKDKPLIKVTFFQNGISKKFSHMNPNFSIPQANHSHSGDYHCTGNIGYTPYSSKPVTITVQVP
Procedure: as §1, §2

| Binder | amount of FcgR binding (SG1 = 100) [1] | amount of FcgR binding (SG1 = 100) [2] | amount of FcgR binding (SG1 = 100) [3] | amount of FcgR binding (SG1 = 100) [4] |
| --- | --- | --- | --- | --- |
| M103205H795-SG175/M103202L889-SK1 (antibody, human IgG1, kappa, also called N325F) heavy: not shown light: DIVMTQSPATLSLSPGERATLSCTSSQSVYHANWLSWFQQKPGQPPKLLIYWASTLAYGVPSRFSGSGSGTDFTLTISSLQPEDAATYYCAGGYGGGRYAFGQGTKVEIKRTVAAPSVFIFPPSDEQLKSGTASVVCLLNNFYPREAKVQWKVDNALQSGNSQESVTEQDSKDSTYSLSSTLTLSKADYEKHKVYACEVTHQGLSSPVTKSFNRGEC | 13 SG1 = 100 | 17 SG1 = 100 | 13 SG1 = 100 | 14 SG1 = 100 |
| M103205H795-SG171/M103202L889-SK1 (antibody, human IgG1, kappa, also called S239P) heavy: not shown light: DIVMTQSPATLSLSPGERATLSCTSSQSVYHANWLSWFQQKPGQPPKLLIYWASTLAYGVPSRFSGSGSGTDFTLTISSLQPEDAATYYCAGGYGGGRYAFGQGTKVEIKRTVAAPSVFIFPPSDEQLKSGTASVVCLLNNFYPREAKVQWKVDNALQSGNSQESVTEQDSKDSTYSLSSTLTLSKADYEKHKVYACEVTHQGLSSPVTKSFNRGEC | 20 SG1 = 100 | 18 SG1 = 100 | 17 SG1 = 100 | 20 SG1 = 100 |
